Experimental data from paper PMC3115558 (Biochemistry, 2011).
Ends that are not written are not given here.

Molecular target: PP1α catalytic subunit (New England BioLabs) (UniProt P62139 1-330)
Assay: SPR

Chain of PP1α catalytic subunit (New England BioLabs) (P62139 whole entry): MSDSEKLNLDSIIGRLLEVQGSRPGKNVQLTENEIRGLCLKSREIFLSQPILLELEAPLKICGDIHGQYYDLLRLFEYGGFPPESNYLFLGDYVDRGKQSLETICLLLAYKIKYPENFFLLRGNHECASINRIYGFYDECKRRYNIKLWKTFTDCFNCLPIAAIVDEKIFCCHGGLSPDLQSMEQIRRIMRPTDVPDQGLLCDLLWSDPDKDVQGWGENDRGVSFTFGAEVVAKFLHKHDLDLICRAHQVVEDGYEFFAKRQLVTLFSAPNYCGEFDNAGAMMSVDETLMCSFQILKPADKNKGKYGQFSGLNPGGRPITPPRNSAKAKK

## AERQKEKASMLCAKRAKAAAKALKP (also: biotinylated, position not given here) [Biotinylated AKAP79 synthetic peptide, amino acids 25-49, mutant (AxxAxA)]
  Kd: 341 nM
